In the supplement of paper PMC10567573:
± gives the standard deviation.

Test: protein stability index of a GFP-peptide fusion (GPS, HEK-293T) (PSI 1-6); higher = more stable
Details: c terminus: a fixed tail appended
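Note: 24-mer peptide tiles fused after GFP, lentivirally expressed, FACS-sorted into six equal bins by GFP/DsRed ratio, decoded by Illumina sequencing, PSI is the read-weighted mean bin number.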

Sequence | protein stability index (treatment: DMSO) | protein stability index (treatment: MLN4924 1 uM, 8 h)
QALKRKKRFEKQLTQIDGTLSTIE [CHMP4C] | 4.05 ± 0.18 | 3.96 ± 0.23
RYFSLSLMSGALAVNQKIDRESLC [PCDHGC5] | 2.03 ± 0.21 | 2.1 ± 0.28
ESRAPSPLLHKDSASLEVVKKDHV [CBY2] | 5.18 ± 0.3 | 5.27 ± 0.24
EKMMQEAEKLKAQGEYSRKLEERF [CCDC89] | 3.48 ± 0.24 | 3.56 ± 0.52
WNMDKYTMIRKLEGHHHDVVACDF [WSB1] | 2.38 ± 0.19 | 2.58 ± 0.33
NFGFDLLVTYTNRYIIFKRNTLNQ [GMCL1] | 2.1 ± 0.15 | 2.47 ± 0.56
VPEKRDSGMTEVERTYSANCSDFL [SPATS1] | 4.7 ± 0.17 | 4.89 ± 0.14
ATLTQVSVEYGYRPGATAVPTPLT [FCHO1] | 2.39 ± 0.36 | 2.47 ± 0.26
VRKSRDKAKRRNQEMQQKLVELSA [CEBPD] | 3.78 ± 0.34 | 3.72 ± 0.43
LFVIVPVLGPLVALIICYNWLHRR [MOG] | 3.38 ± 0.68 | 3.11 ± 0.58
VEVISDTLSKPSPMPVSQECFETL [CHGA] | 3.85 ± 0.092 | 3.87 ± 0.25
PQDYKKRLSVELTSSLFRTEPMAW [CTNNB1] | 2.67 ± 0.24 | 2.8 ± 0.21
SYAFPKEFPYRMNHILECEFYLLE [CCNC] | 2.24 ± 0.57 | 2.7 ± 1.1
PHAMTIQELVDYVNARQKQGIYEE [PTPN9] | 3.23 ± 0.21 | 3.25 ± 0.41
NHLNPEVKKSCWTEEEDRIICEAH [MYBL2] | 4.72 ± 0.1 | 4.81 ± 0.2
LTTKDYMEMYNVIMTVKEDQFSAL [SLC6A17] | 2.37 ± 0.39 | 2.38 ± 0.29
KELILDKVYTHPKWNTQTKARSYS [ZC2HC1C] | 2.91 ± 0.44 | 3.44 ± 0.46
DTCRTQLVWLVRELVKSGVLGADG [INTS3] | 2.51 ± 0.54 | 2.37 ± 0.24
YQYIQSRFYRSPEVLLGTPYDLAI [DYRK1B] | 2.18 ± 0.41 | 2.29 ± 0.35
MQKEDNQVDVRFFGHHHQRAWIPS [ZMYND11] | 3.05 ± 0.12 | 3.18 ± 0.32
QDSTRTVGERLQDTHSWKSELQRE [TEKT4] | 4.88 ± 0.36 | 4.96 ± 0.27
QYNRPISDFLTLHSIIISLVEAGA [FEM1B] | 2.34 ± 0.53 | 2.36 ± 0.34

Sequence | protein stability index (treatment: DMSO) | protein stability index (treatment: MLN4924 1 uM, 8 h)
KNVELKFVDSIRRQFEFSVDSFQI [TENT5C] | 2.29 ± 0.6 | 2.42 ± 0.39
VTVSDASWVSELLWSLFVPFTVYQ [AUP1] | 2.87 ± 0.55 | 3.14 ± 0.47
LGLSKLARIVEIYSRRLQVQERLT [GCH1] | 2.71 ± 0.65 | 2.2 ± 0.41
SAMLLVTLGKVLKVIVVMRSLFID [MED27] | 2.9 ± 0.45 | 2.85 ± 0.73
LTPHIVQYQANKVTHTLTMRQRIS [PPEF2] | 2.89 ± 0.28 | 3 ± 0.17
TRPSGNNGNRRRRKLRKTVNGDGS [PHTF1] | 4.83 ± 0.2 | 5.03 ± 0.12
MENKAMYLHTVSDCDTSSICEDSF [SCARA5] | 4.46 ± 0.17 | 4.49 ± 0.22
CRCVASPPPDAAATAASSSASSPA [SLC25A25] | 4.52 ± 0.22 | 4.35 ± 0.29
NEKETMQSLNDRLASYLDRVRSLE [KRT18] | 3.61 ± 0.23 | 3.54 ± 0.28
TRWLNSGRGDEASEEGQNGSSPKS [ADD1] | 5.4 ± 0.12 | 5.44 ± 0.24
TETEATNSLITAPGEFSDASMSPD [SMAD6] | 5.42 ± 0.2 | 5.28 ± 0.37
DSLKFAVLMWLLTYVGALFNGLTL [RTN1] | 3.69 ± 1.4 | 3.378 ± 0.013
RGFFFSHVGWLLVRKHPAVKEKGS [SCD] | 2.31 ± 0.6 | 2.5 ± 0.17
SNISRPRDNPMCLKCDLQERLLCP [M1AP] | 2.87 ± 0.095 | 3.05 ± 0.26
SRAPCKVQGLEGIKMAMVACGDAF [NEK8] | 2.27 ± 0.38 | 2.25 ± 0.27
GAQFEGEKGRALQIRDWRGGRLEN [ZSWIM9] | 4.24 ± 0.23 | 3.87 ± 0.57
SISRGRHARTHPQTALLESSCENK [MATN2] | 4.87 ± 0.22 | 4.88 ± 0.27
GHNFCRGCVSRCWEVQVSPTCPVC [TRIM35] | 3.86 ± 0.22 | 3.83 ± 0.38
NSLEMTPAVRQRVIEEAKTAFLLN [HMOX1] | 3.67 ± 0.2 | 3.63 ± 0.31
SDAGSPSLHKHLTIRLNISDVNDN [PCDHGC5] | 3.73 ± 0.17 | 3.71 ± 0.24
ASQHSYPLNRFSSVPLDPMERPMS [CBY2] | 3.92 ± 0.33 | 3.98 ± 0.32
YLCKRVPHTVLDRQLLCLIDYYES [CEP70] | 2.1 ± 0.58 | 2.21 ± 0.32

Sequence | protein stability index (treatment: DMSO) | protein stability index (treatment: MLN4924 1 uM, 8 h)
ILIIQGVLSDINLKKGESECQYYI [NET1] | 2.73 ± 0.54 | 2.67 ± 1
LDISDSISESGGLNWKMTLCLLVA [SLC6A17] | 2.54 ± 0.48 | 2.5 ± 0.79
ASAAAATAAFTTAKAAALSTKTPA [SPAG8] | 4.48 ± 0.26 | 4.57 ± 0.2
ASPVPESSLTADLLSVDAFAAPSP [SNAP91] | 4.88 ± 0.28 | 4.97 ± 0.15
HQLLGLFPSTSYNARLQAMWGQSL [TNXB] | 2.11 ± 0.35 | 2.08 ± 0.23
LGAVAGLALGPILRLYKHNSQALL [MFSD9] | 2.59 ± 1.1 | 2.43 ± 0.15
YYFIMACDQYSCALTGPVVDIVTG [DHCR7] | 3.35 ± 0.17 | 3.26 ± 0.53
EERRVVHASGDASYSAGDSGDAAA [EPB41L3] | 5.49 ± 0.32 | 5.42 ± 0.17
NRQSSDKQNGRVAKVKGHRSQKHK [C18orf25] | 4.67 ± 0.18 | 4.55 ± 0.17
SCSSDGGIAVWNMDVSREEAPQWL [WDFY1] | 3.07 ± 0.09 | 3.08 ± 0.23
GLWGTTLTENTAENRELYIKTTLR [PKD2L1] | 3.19 ± 0.15 | 3.2 ± 0.17
TVASMMHRQETVDCLKKFNARRKL [CAMK2D] | 3.17 ± 0.15 | 3.73 ± 0.72
PGDPSKDRAAKRLSLESEGAGEGA [TPPP] | 5.47 ± 0.22 | 5.33 ± 0.38
DSTMRILSNLVQHILKKYYGNGMR [RTP4] | 2.45 ± 0.73 | 2.46 ± 0.41
LGAEESLGLLDDYLEVAKHFKPHG [ATF4] | 3.24 ± 0.33 | 3.56 ± 0.36
SLLFVVMFIPETKGCSLEQISMEL [SLC2A12] | 2.93 ± 0.53 | 3.2 ± 0.13
MPVICGPEENYPSLQMSSAEMPHT [NANOGP8] | 4.47 ± 0.32 | 4.39 ± 0.24
QSNVLCSIFGICMVFSGLCPLLLG [PTGFR] | 2.75 ± 0.23 | 2.63 ± 0.34
AVVSCTPVHLVDKLPLPIALRSHL [RAB40B] | 2.65 ± 0.12 | 1.98 ± 0.41
LTGTESPFDLEQQWQDLMSIMEMQ [NFE2L1] | 3.95 ± 0.23 | 3.88 ± 0.47
ERHKLKRQDADAWTLYKILDSCKQ [SMG5] | 2.75 ± 0.21 | 2.9 ± 0.36
